This note sets out measurements from patent US20110223188A1, “TARGETED COSTIMULATORY POLYPEPTIDES AND METHODS OF USE TO TREAT CANCER” (priority 2008, published 2011).

The test system of experiment [1] is SP-1 mouse prostate tumor cells. Description: Metastatic prostate lung tumor model (SP-1), survival. It counts as in vivo, B10.D2 mice. The following applies: CTX 50 mg/kg Day 5, 12, 19; B7-DC-Ig 5 mg/kg Day 6, 13, 20. As to the method:
SP-1 cells were isolated from mouse lungs that were metastasized from. TRAMP prostate tumor cell injection. B10.D2 mice were first injected with 3×10^5 SP-1 cells via tail vein injection. On Day 5, 12 and 19, mice were injected with 50 mg/kg of CTX where was indicated. […] Here, “NT” refers to “not treated”.
The CTX mice received 3 doses of CTX, 50 mg/kg, on Day 5, 12 and 19.

Experiment [2] relates to CT26 colorectal tumor cells. Description: Established CT26 colorectal tumor model (subcutaneous). As to conditions: CTX 100 mg/kg on day 10 alone.
Excerpt: Balb/C mice at age of 9 to 11 weeks were implanted subcutaneously with 1.0×10^5 CT26 colorectal tumor cells.
Experiment [3] deals with Treg; CD4+ T cells expressing high PD-1. Kind of experiment: T cell analysis (Treg, PD-1+/CD4+ T cells) in CT26 tumor-bearing mice. The class given is in vivo, Balb/C mice. Here is the method: On Day 9, mice were injected with 100 mg/kg of CTX, IP. Twenty four hours later, on Day 10, mice were treated with 100 ug of 137-DC-Ig. […] Two naïve mice and 4 mice from other groups were removed from the study on Day 11 (2 days post CTX) and Day 16 (7 days post CTX) for T cell analysis. […] Mice implanted with tumor cells intended to have more PD-1+/CD4+ T cells in the draining LN compared with naïve mice.
On Day 9, mice were injected with 100 mg/kg of CTX, IP. […] Two naïve mice and 4 mice from other groups were removed from the study on Day 11 (2 days post CTX) and Day 16 (7 days post CTX) for T cell analysis. […] Mice implanted with tumor cells intended to have more PD-1+/CD4+ T cells in the draining LN compared with naïve mice.

A further experiment relates to P815 mastocytoma. Description: P815 mastocytoma tumor model. It counts as in vivo, DBA/2 mice. Here is the method:
P815 mastocytoma cells were derived from DBA/2 mice after methylcholanthrene (MCA) treatment. Injection of 5×10^4 cells SC can result in mortality approximately 35 days post tumor inoculation.
DBA/2 mice (6-10 weeks of age, females) were first challenged with 5×10^4 live P815 cells injected SC in the flank. Six days later, the mice were treated with murine B7-DC-Ig via IP injection. […] Control groups were treated with vehicle only or with murine IgG. Tumor size was measured with digital calipers every 2-3 days. Mice were euthanized and defined as dead when their tumor size reached or exceeded 1000 mm^3, according to protocols approved by the Institutional Animal Care and Use Committee (IACUC) of the American Red Cross (ARC; the site of Amplimmune's vivarium). Surviving tumor free mice were re-challenged with P815 tumor cells on Day 52.
The tumor-free mice were then re-challenged with 5×10^4P815 cells administered to the flank opposite the primary inoculation site on Day 52.

The mark [4] stands for this setting: number of mice, 5 per group, P815 cells SC, treatment IP biw 3 weeks starting Day 6.

Turning to `O=P1(N(CCCl)CCCl)NCCCO1` (stereo not drawn) [CTX, cyclophosphamide, reference compound], in experiment [1], the “mice survived on Day 100” value is given as 17%. The “outcome of mice (tumor growth/survival)” value in experiment [2] is listed as “died as a result of tumor growth or were euthanized”. Besides, the “Treg in the spleen vs tumor-implanted vehicle-injected mice” value in experiment [3] (Day 11, 2 days post CTX 100 mg/kg IP) is recorded as “significantly lower”.

B1: Murine B7-DC-Ig: murine B7-DC fusion protein: B7-DC extracellular domain fused to murine immunoglobulin Cγ2a hinge, CH2, CH3 (likely SEQ ID NO:80/81) (protein)
chain: MLLLLPILNLSLQLHPVAALFTVTAPKEVYTVDVGSSVSLECDFDRRECTELEGIRASLQKVENDTSLQSERATLLEEQLPLGKALFHIPSVQVRDSGQYRCLVICGAAWDYKYLTVKVKASYMRIDTRILEVPGTGEVQLTCQARGYPLAEVSWQNVSVPANTSHIRTPEGLYQVTSVLRLKPQPSRNFSCMFWNAHMKELTSAIIDPLSRMEPKVPRTWEPRGPTIKPCPPCKCPAPNLLGGPSVFIFPPKIKDVLMISLSPIVTCVVVDVSEDDPDVQISWFVNNVEVHTAQTQTHREDYNSTLRVVSALPIQHQDWMSGKEFKCKVNNKDLPAPIERTISKPKGSVRAPQVYVLPPPEEEMTKKQVTLTCMVTDFMPEDIYVEWTNNGKTELNYKNTEPVLDSDGSYFMYSKLRVEKKNWVERNSYSCSVVHEGLHNHHTTKSFSRTPGK
modifications: Synthetic murine B7-DC fusion protein with signal peptide
As for B1, the “mice responded to treatment” value in the experiment on P815 mastocytoma (100 μg per injection (approximately 5 mg/kg) IP, 2 times per week, up to 6 doses) is listed as “Four of 5”. Also, in the experiment with P815 mastocytoma (setting [4]), the “# Tumor <500 mm^3” value is reported as 2, the “# Tumor free” value is given as 2 and the “# Tumor ≧500 mm^3” value was 1. Further, in the experiment with P815 mastocytoma (of 5 treated mice), the “mice in which tumor was eradicated” value was “two” and the “mice showing delayed tumor growth during treatment” value is on record as “two”. In the experiment on P815 mastocytoma (tumor-free mice re-challenged on opposite flank, followed through 74 days after primary inoculation), the “tumor status after re-challenge with P815 cells on Day 52” value is “remained tumor free”. Moreover, in experiment [1], the “mice survived on Day 100” value was 17%. Further, the “CD4+ T cells expressing high PD-1” value in experiment [3] (Day 16, 7 days post CTX and 6 days post B7-DC-Ig 100 ug) is reported as “significantly lowered”.
